Molecular target: T1, recombinant human Ang-2 (human, UniProt O15123 19-496, limits assumed)
T1 construct: also called hAng-2; human angiopoietin-2
T1 sequence (looked up): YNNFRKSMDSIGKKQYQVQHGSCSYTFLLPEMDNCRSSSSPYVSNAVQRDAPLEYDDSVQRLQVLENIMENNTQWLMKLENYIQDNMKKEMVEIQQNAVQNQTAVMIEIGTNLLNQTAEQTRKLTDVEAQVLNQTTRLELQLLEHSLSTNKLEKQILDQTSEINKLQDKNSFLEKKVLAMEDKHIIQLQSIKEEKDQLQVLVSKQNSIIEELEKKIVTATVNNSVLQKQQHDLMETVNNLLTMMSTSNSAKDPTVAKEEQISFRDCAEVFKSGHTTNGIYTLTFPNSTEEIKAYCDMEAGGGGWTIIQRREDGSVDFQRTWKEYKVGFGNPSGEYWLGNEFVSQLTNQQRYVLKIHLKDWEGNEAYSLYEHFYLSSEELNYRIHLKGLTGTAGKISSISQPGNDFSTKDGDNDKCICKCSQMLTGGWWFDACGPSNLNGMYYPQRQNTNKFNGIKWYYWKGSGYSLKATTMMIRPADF
Assay: ELISA, recombinant human Ang-2 coated, detection with anti-human IgG Fc-HRP or anti-lipocalin-HRP, signal normalised (RU %)
Method: Bound agents under study were detected via an anti-human-IgG-Fc antibody or anti-lipocalin antibody as described in Example 3. The data was fit with a 1:1 binding model with EC50 value and the maximum signal as free parameters, and a slope that was fixed to unity.
The target was dissolved in PBS (5 μg/mL) and coated overnight on microtiter plates at 4° C. The plate was washed after each incubation step with 80 μL PBS-T five times. The plates were blocked with 2% BSA (w/v) in PBS for 1 h at room temperature and subsequently washed. […] Bound agents under study were detected after incubation for 1 h at room temperature with 1:1000 diluted anti-lipocalin antibody conjugated to HRP in PBS-T or 1:5000 diluted anti-human IgG Fc-HRP (#109-035-098, Jackson […]) in PBS-T. After an additional wash step, fluorogenic HRP substrate (QuantaBlu, Thermo) was added to each well and the fluorescence intensity was detected using a fluorescence microplate reader.

B1: SEQ ID NO: 1 negative control (other)
chain: QDSTSDLIPAPPLSKVPLQQNFQDNQFQGKWYVVGLAGNAILREDKDPQKMYATIYELKEDKSYNVTSVLFRKKKCDYWIRTFVPGCQPGEFTLGNIKSYPGLTSYLVRVVSTNYNQHAMVFFKKVSQNREYFKITLYGRTKELTSELKENFIRFSKSLGLPENHIVFPVPIDQCIDG
notes: Lipocalin negative control; also called mature hNGAL
binding result: no binding (tested: 100 nM)

B2: lipocalin mutein of SEQ ID NO: 2 (designed binder)
chain: QDSTSDLIPAPPLSKVPLQQNFQDNQFHGKWYVVGQAGNYILREDKDPGKMWATIYELKEDKSYDVTEVSFGAKKCNYRIWTFVPGSQPGEFTLGGIKSDPGGTSTLVRVVSTNYNQHAMVFFKHVLQNREFFEITLYGRTKELTSELKENFIRFSKSLGLPENHIVFPVPIDQCIDG
notes: hNGAL mutein specific for Ang-2, tested in monomeric form; also called positive control lipocalin mutein; Ang-2-specific lipocalin mutein in monomeric form
EC50 (read off the curve): ~0.4 nM

B3: lipocalin mutein of SEQ ID NO: 3 (designed binder)
chain: QDSTSDLIPAPPLSKVPLQQNFQDNQFHGKWYVVGHAGNYILREDKDPGKMWATIYELKEDKSYDVTEVSFGPKKCNYRIWTFVPGSQPGEFTLGGIKSPPGGTSTLVRVVSTNYNQHAMVFFKHVLQNREFFEITLYGRTKELTSELKENFIRFSKSLGLPENHIVFPVPIDQCIDG
notes: as for B2
EC50 (read off the curve): ~0.6 nM

Reference: US20180334499A1 (Pieris, published 2018)
